Assay results published in publication PMC6201861, “Generation and characterization of novel recombinant anti-hERG1 scFv antibodies for cancer molecular imaging” (Oncotarget, 2018).

T1: S5-Pore peptide (Homo sapiens (Human).)
T1 construct: peptide of the extracellular S5-P loop of the human hERG1 (Kv 11.1) potassium channel; also called antigenic peptide; raising peptide
T1 chain: EQPHMDSRIGWLHN

B1: scFv-hERG1-Cys (scFv, V domains shown)
VH: EVQLQQSGPELVKPGASVKISCKTSGYTFTEYTVHWVKQSHGKSLEWIGGINPNGGTTYNQKFKGKATLTIDKSSSSAFMELRSLTSEDSAVYYCATGWGPDYWGQGTTLTVSS
VL: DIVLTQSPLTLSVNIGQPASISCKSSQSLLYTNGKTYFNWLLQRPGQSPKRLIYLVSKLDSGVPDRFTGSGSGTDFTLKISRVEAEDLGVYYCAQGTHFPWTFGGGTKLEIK
notes: numbers count on: Kabat scheme of the VH; as the linker of m1; as the VL of m1; also called mutagenized scFv-hERG1; scFv-Cys; source: P. pastoris GS115 (pPIC9K), purified from culture supernatant (HisTrap HP)
B2: scFv-hERG1-Cys-Alexa488 (scFv, V domains shown)
VH: B1 VH
VL: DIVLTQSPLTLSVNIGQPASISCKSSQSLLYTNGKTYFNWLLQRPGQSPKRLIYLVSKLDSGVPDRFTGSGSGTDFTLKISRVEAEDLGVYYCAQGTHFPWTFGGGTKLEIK
notes: numbers count on: Kabat scheme of the VH; as the linker of m1; as the VL of m1; Same protein as m2, with the fluorophore

What was measured:
[1] = target: T2, hERG1 potassium channel expressed on hERG1-transfected HEK 293 cells (Homo sapiens (Human)., UniProt Q12809); test: immunostaining of cells or tissue; indirect immunofluorescence on fixed HEK-hERG1 and HEK-Mock cells; conditions: one partner purified
T2 construct: human ether-a-go-go-related gene-1 (hERG1, Kv 11.1) potassium channel; cell culture details are in the Supplementary Materials; also called HEK-hERG1; HEK 293 hERG1; source: HEK 293, transfected, on cells

S5-Pore peptide [2] = target: T1, S5-Pore peptide; test: ELISA; S5-Pore peptide as coating antigen; 0.1 to 10 ug of scFv (Alexa488 conjugate at 1 ug); revealed with anti-6xHis antibody then anti-mouse IgG-HRP; OD450; conditions: both partners purified
S5-Pore peptide [3] = target: T1, S5-Pore peptide; test: SPR; Biacore T100; S5-Pore peptide amine-coupled to a CM5 chip; scFv flowed at 2.5, 5, 10, 20, 40 ug/ml; contact 120 s, dissociation 600 s, 30 ul/min; 1:1 binding model for scFv-hERG1, two-state reaction model for scFv-hERG1-Cys; conditions: both partners purified
[4] = target: T2, hERG1 potassium channel expressed on …; test: immunostaining of cells or tissue; direct immunofluorescence with the Alexa 488 conjugate on fixed cells (HEK-hERG1, HEK-Mock; PANC-1 in 2D and as spheroids); conditions: one partner purified
[5] = target: T3, hERG1 potassium channel endogenously expressed on cancer cell lines (Homo sapiens (Human)., UniProt Q12809); test: as above; conditions: one partner purified
T3 construct: human ether-a-go-go-related gene-1 (hERG1, Kv 11.1) potassium channel; also called hERG1 on PANC-1 cells; Kv 11.1; source: endogenous, on PANC-1 cells (2D and spheroids); in the viability tests also MDA-MB231, MIAPaCa-2, HCT-116
T3 sequence (Q12809 whole entry): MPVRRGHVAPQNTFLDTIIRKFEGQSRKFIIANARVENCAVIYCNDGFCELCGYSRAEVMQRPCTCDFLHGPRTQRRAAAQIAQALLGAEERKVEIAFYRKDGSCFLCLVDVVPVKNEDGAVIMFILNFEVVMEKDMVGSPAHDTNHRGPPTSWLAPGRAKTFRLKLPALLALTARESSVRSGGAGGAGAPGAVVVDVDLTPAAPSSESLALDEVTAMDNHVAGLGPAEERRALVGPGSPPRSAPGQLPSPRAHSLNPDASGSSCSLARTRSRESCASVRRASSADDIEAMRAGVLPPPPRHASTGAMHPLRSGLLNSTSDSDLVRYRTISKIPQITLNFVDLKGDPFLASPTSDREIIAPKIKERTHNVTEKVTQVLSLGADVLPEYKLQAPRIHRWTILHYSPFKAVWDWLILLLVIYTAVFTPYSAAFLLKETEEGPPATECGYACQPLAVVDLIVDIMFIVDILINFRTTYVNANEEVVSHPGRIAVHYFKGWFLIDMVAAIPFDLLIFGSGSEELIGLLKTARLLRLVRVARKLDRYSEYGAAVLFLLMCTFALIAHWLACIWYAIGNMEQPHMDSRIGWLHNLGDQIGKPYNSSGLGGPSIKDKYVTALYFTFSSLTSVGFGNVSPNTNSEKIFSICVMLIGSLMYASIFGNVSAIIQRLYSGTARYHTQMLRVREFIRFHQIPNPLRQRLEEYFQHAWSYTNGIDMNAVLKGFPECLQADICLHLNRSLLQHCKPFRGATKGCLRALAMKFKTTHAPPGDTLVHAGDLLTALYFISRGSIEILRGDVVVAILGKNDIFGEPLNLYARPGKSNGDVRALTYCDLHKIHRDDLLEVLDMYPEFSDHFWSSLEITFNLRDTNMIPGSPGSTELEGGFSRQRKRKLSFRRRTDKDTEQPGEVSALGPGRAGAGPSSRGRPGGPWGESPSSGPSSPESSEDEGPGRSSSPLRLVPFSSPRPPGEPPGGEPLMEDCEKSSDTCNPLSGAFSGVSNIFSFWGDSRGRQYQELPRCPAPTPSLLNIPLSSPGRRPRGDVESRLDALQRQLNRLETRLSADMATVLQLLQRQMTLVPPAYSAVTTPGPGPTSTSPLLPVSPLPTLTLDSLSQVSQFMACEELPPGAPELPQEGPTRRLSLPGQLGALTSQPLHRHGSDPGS

T2 sequence (Q12809 whole entry): as above

Binder	binding result [1]	fold binding against scFv-hERG1 (ELISA O.D.) (S5-Pore peptide [2]) [fold]	Kd (S5-Pore peptide [3]) [nM]	binding result [4]	binding result [5]
B1	binds	~2	61.8	–	–
B2	–	–	–	binds	binds
